According to the supplement of paper PMC12636428:

Tested on: Saccharomyces cerevisiae
Assay: transcriptional activation domain activity (GFP:mCherry ratio, weighted mean of sorted bins, harmonized to initial dataset scale) (arbitrary fluorescence ratio units); higher = stronger transcriptional activation
Details: beta-estradiol 1 µM; induction time 4 h
Outline: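 Each value is an activation activity: the read-weighted mean of bin median fluorescence, averaged across barcodes, then mapped linearly to the initial dataset scale. The tiles, fused to an estradiol-inducible synthetic transcription factor, sat at the yeast URA3 locus in GFP-reporter diploids. Cells spent 4 hours at 30 °C in SC with 1 uM beta-estradiol before sorting into 8 GFP:mCherry bins, and tiles below 50 reads were removed.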

SALFCKIWTIIQAYYIVISFISIHNCMPCTMPFHHECVGSIPLWLWVTWLPSI
transcriptional activation domain activity: 40400

SALRYYFKVELYNLPARQWFERCFFTPLEVFNTAWLAYILLAQTTGSMVNCAC
transcriptional activation domain activity: 38200

SAPAPVRVVSLTKEEPVPEVKEEVKEEVKPAPAAAAPKPKPAAAKKETPAAVK
transcriptional activation domain activity: 13400

SAPNDSTTAPTNASNIANTASVNKQMYFMNMNMNNNPHALNDPSILETLSPFF
transcriptional activation domain activity: 71400

SASAAAKPAAAPLKKSTSGSLASKPAMSSTKPAAAPAAAPARRASVVPAKSSA
transcriptional activation domain activity: 33900

SASASAAPAASTAGSADKSGGAQEKHRGGRRRGGRGRGDKESGGKEGGSKNTE
transcriptional activation domain activity: 34400

SASASASGATASASASAAAGAGGKGGFGGKGGFGGGFGGKGQGGKGGKGGAAA
transcriptional activation domain activity: 34000

SASEIRVDSFRKIMSIPLAIFTLRPRHVFVAVRRVCRSCTNYLVVLALYMALF
transcriptional activation domain activity: 51800

SASKPAAVTDADEAARPVKKPARPSPGDEDKPEKKEESSRKIETQQPKKAAAQ
transcriptional activation domain activity: 25500

SASPDESRRSSHRSRRDRDYEKRRDRGEERDSDHDHRRKSHSHRDRERDRGRD
transcriptional activation domain activity: 30000

SASSKNGDKPKTVRKKGGEPEVSKESTPKPRTTARNRKGAKQEEAKNKTITGR
transcriptional activation domain activity: 41300

SASSNTRPREPSPEPYRKPREESRDRKRHRSRDRRRDRSPGGKKSRAREGRRD
transcriptional activation domain activity: 35900

SASSPAATSPSACPTSSPRLRSPSSPSPSSQPPASPCTRSCPPPRPAARTARP
transcriptional activation domain activity: 47500

SASSRESSASASHSASKSESSAAASRTSSAPATQSTGAAVANRAGVVGAVAGG
transcriptional activation domain activity: 57700

SASSSAPRKPVSISIGGGGGGAAAAAAAPPADKKPVSISIGGSSAKAAAPAAA
transcriptional activation domain activity: 38800

SATARTTTTTRTATSTTTTAKPSTTTRPSTTTTTTAARRPGTTTTTPARTSVT
transcriptional activation domain activity: 38700

SATEFVTVGGTGNVYHWDMEYSFSRNDDDNEDEVRVAAPEELQGQCLKFFHTG
transcriptional activation domain activity: 51000

SATIFSPFDTHLLEPVPSSSSESSAEVMFHGKQMKNFLIDINSFTNQQQQAQD
transcriptional activation domain activity: 38700

SATPATSEAAKPATSSLFGNGSSTTTAGATAAKPSLFGAAQSTPTTQPATTGA
transcriptional activation domain activity: 38800

SCCMLQVISGIAMGNSCLARMNFWPVIASNFPWLLIVIINYTMFFNWMLSYFL
transcriptional activation domain activity: 62400

SCDNIDNAEDKCSYALEYCMDATPGLLNYIQLYYCSSVKPFVFIVLCLWLLFL
transcriptional activation domain activity: 36000

SCFIFLGHHFDVFVSFLLKIGLGDEMLGVLWFFFSCVLLVGAFLLRLLGFYHT
transcriptional activation domain activity: 67900

SCIVLYACSKIIIYLFLMEKVYVVTAVGATRANFMLYRINLSLLIPYVGIFAL
transcriptional activation domain activity: 52300

SCLAVITWDVLNFLIVDCHIIFYRKFNWRVLVFIVARLSPYCFFLSLSISLTS
transcriptional activation domain activity: 60900

SCLMWVVSCALFMCGQLVFFDLNYYWNLTLVSYFLELSIVLVLMFMKLWLSKR
transcriptional activation domain activity: 30400

SCMVYSIHNTTILILSFSPSPLNFFFFSSWLLFIFFFFLFLFLFLFLFLFLFL
transcriptional activation domain activity: 39900

SCTGVFRAYSILIIMVMMLSEVIILFRTCVLIRRERHGHYIICILCFFSLCVL
transcriptional activation domain activity: 49600

SDAAVELCVAAAPRNGESNKAVVQVLSHVSTHHLHLESLLTCLSQALKIPKMD
transcriptional activation domain activity: 42000

SDASAGAEAGTDGSAAPPKKKPRQKRAAPLPGEEGYDAAASKPKRAPRKRKAS
transcriptional activation domain activity: 25300

SDASEGSKGRAREDPSDRAVVEYQGLSRFSSIPEKEKVWAYVVKIVKLLATTK
transcriptional activation domain activity: 34600

SDDDEPPAKAAPKPKPRPVGKAKAKAREPEPESDGEVSAVQKKKKRKIGIFQS
transcriptional activation domain activity: 37600

SDDETSRSHKKSSRRDTSQDDAERGRHHHKSSRHKGERDRHHKIRSRSRSPAR
transcriptional activation domain activity: 13900

SDDGGSSSEIIRVLGGPSIGDIRSRLIRLMPSAPPNSPLDAICRLLAYRLPVQ
transcriptional activation domain activity: 37600

SDDSSEASAIDSGDSSSQSSSDSDSEDAKKKTRRKTAKAKAKAKSKSKNSKKV
transcriptional activation domain activity: 24800

SDDVNSTMEDDDTPIEKHWLNIDQPLGSEKETTTLSILWMLLLLQLSHICTDP
transcriptional activation domain activity: 76600

SDEEEAEVIPAKKARGKKAPVKQEEIQSDEEVLTAKKPAKQARGKKAPAAAVK
transcriptional activation domain activity: 30600

SDEEEKPKPKQGKKKAKAPKKEEEFEGEPEEEEKPKPKKTNGRKKAVKAEEED
transcriptional activation domain activity: 36300

SDEEGEMADRLADDDLDVSVLKTAKELAETAALYRIRNRRPTAHLVLPRVVEG
transcriptional activation domain activity: 40200

SDESTKADSGNKDNPGGAEKSGDEKEKEKDGGTSRMRSRKGKFRKNKAEDIEK
transcriptional activation domain activity: 30400

SDGEESDAGAKERKRKKKRRAKDSESESSDEEEKRKKTKRSKSKSKRRSPSPS
transcriptional activation domain activity: 25700

SDKKAGNDKEEKKEEKKADGSEEKGKKVKDAEKEKEDKKSQQSEKKADDNGDK
transcriptional activation domain activity: 25000

SDKLHRLRWRLGSLEDVLTTFSYLKFEQYLIPIVYLLLRRHTNIIFLAAHWVL
transcriptional activation domain activity: 64000

SDNGTENNGETKKRYDPKDPLRPRRKKARRACYACQRAHLTCGDERPCQRCIK
transcriptional activation domain activity: 16400

SDNQPDFVDFQELLDNDTLGNDLLETTAVLKEFELLHDDSVSATATSNEIDLS
transcriptional activation domain activity: 115000

SDSDEEDEDERAEDAEVDTSASVNRLRDAQAEVETGDVTRRIAIVNLDWDHIK
transcriptional activation domain activity: 29200

SDSEEEDDAEKEDEEEEQRPKKTVKVEEVVKKAFGADGATVWVGQLSYEATSD
transcriptional activation domain activity: 32500

SDSGSEGDSDSDRGRSRKRKKGKSTGKSKSKSKSKSRRNASGSDDESESGSGS
transcriptional activation domain activity: 35300

SDSGSEVDEKNNKNEKIDSESIKNNESKDDIPSKDENSSNDNREISKTDEEGH
transcriptional activation domain activity: 35100

SDSQKSGKIWGLCCTDSFGCLDLIIGLDLSDVLLVIQWRSTCDMCTLWQRLGH
transcriptional activation domain activity: 53500

SDVEDEESSEDEAPARGKKRGRAGQAAKRRRESSLLVTVFADVLVTDVSVFVG
transcriptional activation domain activity: 59400

SDVLFVSLNLLYFWCYLIPLLATIWIRLGNADSTINDRLSVHFYSVAFLLLLF
transcriptional activation domain activity: 32800

SDYGLHLRHVLLLSPTIFPIIFAALMGRCFRSIGLYRAERGISLIRLEQLIGC
transcriptional activation domain activity: 55900

SEAESEAEAEAEEATEPEVSQEKPKRGRKKKEVEVEIKEKPSRKPAGRPKKEK
transcriptional activation domain activity: 12300

SEAVDFEVPDDFVVSWTGDLLPHTIIYCDFPPPMSVALFEPQPSDMDFDWFWI
transcriptional activation domain activity: 71600

SEDERPRGGLKGRKGKKRVEREETSGGSDESSDEEGKRGKAKAGGKREVRTRS
transcriptional activation domain activity: 31900

SEEAQEEAQQPKKKKRTRASDMWKEEGKAEKKEKKKAKKGKKHSKLEEPAEKA
transcriptional activation domain activity: 14500

SEEDEIKAGEEVPKKRRRRQALSCTECKRRKIKCDRQHPCGPCVRRTEADKCH
transcriptional activation domain activity: 52300

SEEETSRSRSSKKHAISSGSDSDRDSRKVRKSRHSSSDEERYQKSHKSSSRRR
transcriptional activation domain activity: 52400

SEESEGETGGKRKRKASSSSGRGEKGKKSKRGGGPEARTRKRKAAAETAETGE
transcriptional activation domain activity: 23500

SEGLLCPLPRYPPHPIVSQLMQTSALRSLQTIVQLQRAHFMTLLFWNILLAFY
transcriptional activation domain activity: 57100

SEIALSSSTHSLRLYGKSVGGGKVAGMVRMAYSAKSGVTVKVSVRSEEGGLAG
transcriptional activation domain activity: 37500
